T1: human ENTPD2 expressed on cells (human, UniProt Q9Y5L3 1-495)
T1 sequence: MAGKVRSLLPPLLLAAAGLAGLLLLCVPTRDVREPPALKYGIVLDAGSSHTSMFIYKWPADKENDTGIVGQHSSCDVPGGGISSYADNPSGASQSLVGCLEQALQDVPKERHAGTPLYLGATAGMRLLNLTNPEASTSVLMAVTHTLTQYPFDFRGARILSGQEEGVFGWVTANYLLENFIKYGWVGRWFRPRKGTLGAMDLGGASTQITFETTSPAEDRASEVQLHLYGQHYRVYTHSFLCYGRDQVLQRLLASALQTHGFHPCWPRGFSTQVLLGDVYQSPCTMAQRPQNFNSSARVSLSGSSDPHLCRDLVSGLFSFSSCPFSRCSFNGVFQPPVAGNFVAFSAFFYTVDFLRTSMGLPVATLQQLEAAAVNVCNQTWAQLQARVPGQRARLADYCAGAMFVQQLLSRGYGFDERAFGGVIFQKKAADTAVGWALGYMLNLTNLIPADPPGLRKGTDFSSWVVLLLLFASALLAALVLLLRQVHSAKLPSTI

T2: cyno ENTPD2 expressed on NIH/3T3 cells (cynomolgus macaque, UniProt Q9Y5L3 1-495 (human entry))
T2 chain: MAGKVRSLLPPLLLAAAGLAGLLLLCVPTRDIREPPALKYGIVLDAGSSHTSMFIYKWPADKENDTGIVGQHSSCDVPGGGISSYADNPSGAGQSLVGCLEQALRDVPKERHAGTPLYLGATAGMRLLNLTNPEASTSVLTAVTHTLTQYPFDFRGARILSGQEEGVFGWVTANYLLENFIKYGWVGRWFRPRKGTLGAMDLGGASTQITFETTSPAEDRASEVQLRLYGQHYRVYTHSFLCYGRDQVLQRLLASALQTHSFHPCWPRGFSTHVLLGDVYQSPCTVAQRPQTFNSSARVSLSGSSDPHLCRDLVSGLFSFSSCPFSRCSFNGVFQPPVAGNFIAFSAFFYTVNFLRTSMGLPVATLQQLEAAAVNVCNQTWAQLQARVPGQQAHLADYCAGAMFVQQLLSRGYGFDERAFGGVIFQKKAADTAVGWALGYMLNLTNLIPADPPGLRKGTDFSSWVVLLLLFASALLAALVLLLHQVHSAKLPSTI

T3: Human ENTPD1 (NP_001767) expressed on NIH/3T3 cells (human, UniProt P49961 1-510)
T3 construct: also called NIH/3T3-ENTPD1; CD39
T3 sequence: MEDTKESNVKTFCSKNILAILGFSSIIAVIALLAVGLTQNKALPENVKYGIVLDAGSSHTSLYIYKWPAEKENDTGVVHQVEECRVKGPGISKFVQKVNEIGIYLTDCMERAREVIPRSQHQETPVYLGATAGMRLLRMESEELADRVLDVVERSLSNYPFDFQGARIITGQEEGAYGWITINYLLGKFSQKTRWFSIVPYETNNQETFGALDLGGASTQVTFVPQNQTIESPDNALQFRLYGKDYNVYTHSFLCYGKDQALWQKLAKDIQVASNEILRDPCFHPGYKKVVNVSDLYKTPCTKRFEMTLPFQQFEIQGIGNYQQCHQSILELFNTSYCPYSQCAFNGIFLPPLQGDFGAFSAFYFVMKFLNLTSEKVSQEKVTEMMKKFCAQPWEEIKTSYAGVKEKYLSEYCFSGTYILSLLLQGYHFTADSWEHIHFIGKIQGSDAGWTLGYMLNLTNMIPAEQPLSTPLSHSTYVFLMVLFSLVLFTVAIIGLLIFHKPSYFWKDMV

T4: recombinant cyno ENTPD2 extracellular domain (residues 29-462) with C-terminal Avi-His6 tag (cynomolgus macaque, UniProt Q9Y5L3 29-462 (human entry))
T4 construct: also called cynomologus (cyno) ENTPD2 ECD
T4 chain (part 1 of 2): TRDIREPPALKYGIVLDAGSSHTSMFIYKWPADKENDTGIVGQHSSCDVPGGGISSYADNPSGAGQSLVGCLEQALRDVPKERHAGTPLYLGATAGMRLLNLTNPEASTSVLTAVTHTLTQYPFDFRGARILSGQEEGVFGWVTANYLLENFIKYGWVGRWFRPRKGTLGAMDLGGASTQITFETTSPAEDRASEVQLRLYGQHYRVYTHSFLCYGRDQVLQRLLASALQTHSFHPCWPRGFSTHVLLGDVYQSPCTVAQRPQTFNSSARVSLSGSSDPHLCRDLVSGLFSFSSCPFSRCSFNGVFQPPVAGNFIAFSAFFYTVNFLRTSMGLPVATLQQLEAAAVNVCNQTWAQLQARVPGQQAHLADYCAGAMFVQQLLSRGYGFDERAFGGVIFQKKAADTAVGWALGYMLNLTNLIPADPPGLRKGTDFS
T4 chain (part 2 of 2): HHHHHH


What was measured:
[1] = target: T1, human ENTPD2 expressed on cells; assay: cell-based or functional assay
[2] = target: T2, cyno ENTPD2 expressed on NIH/3T3 cells; assay: cell-based or functional assay
[3] = target: T3, Human ENTPD1 (NP_001767) expressed on …; assay: flow cytometry, NIH/3T3-ENTPD1 cells
[4] = target: T5, recombinant human ENTPD2 extracellular domain (residues 29-462) with C-terminal Avi-His6 tag (human, UniProt Q9Y5L3 29-462, biotinylated on the AviTag in the epitope binning assay); assay: SPR Biacore, mAb captured, ECD analyte, 25C
T5 construct: also called human ENTPD2 ECD; Human ENTPD2-Avi-His6 protein
Description: (§1) Biacore Screening: Affinity was measured by determining the kinetic rate constants using surface plasmon resonance (SPR) on a Biacore T200 or T100 with the T200 sensitivity upgrade instrument (Biacore, GE Healthcare). Antibodies were captured on CM5 sensor chips (Biacore, GE Healthcare) prepared with a mouse anti-human IgG Fc antibody (ThermoFisher catalogue #05-4200) amine coupled to the surface. […] ENTPD2 analytes were allowed to associate for 180 s and dissociate for up to 1800 s depending on the off-rate of the antibody at a flow rate of 30 μL/min. The running buffer was PBS pH 7.2 (prepared from a Corning 10X stock, cat#46-013-CM)+0.05% Tween 20. […] The raw data were analyzed using Biacore T200 Evaluation Software version 1.0 and fit to a 1:1 binding model, with all parameters set to fit globally except for RI, which was set to fit locally.

[5] = target: T4, recombinant cyno ENTPD2 extracellular …; assay: SPR Biacore, mAb captured, ECD analyte, 25C
Description: as §1

[6] = target: T1, human ENTPD2 expressed on cells; assay: flow cytometry, RKO cells (endogenous ENTPD2)
Description: FACS screening: Specific binding of candidate antibodies to endogenously expressed ENTPD2 was assessed by flow cytometry. […] Geometric mean fluorescence intensity was calculated on live single cells using FlowJo software.

| Binder | % inhibition, Human ENTPD2 NIH/3T3 Assay [1] [%] | % inhibition, RKO Assay [1] [%] | IC50, Human ENTPD2 NIH/3T3 Assay [1] [nM] | IC50, RKO Assay [1] [nM] | % inhibition, Cyno ENTPD2 NIH/3T3 Assay [2] [%] | IC50, Cyno ENTPD2 NIH/3T3 Assay [2] [nM] | binding result [3] | Kd [4] [nM] | koff [4] [s⁻¹] | kon [4] [M⁻¹ s⁻¹] | Kd [5] [nM] | koff [5] [s⁻¹] | kon [5] [M⁻¹ s⁻¹] | EC50 [6] [nM] |
| --- | --- | --- | --- | --- | --- | --- | --- | --- | --- | --- | --- | --- | --- | --- |
| ANTI-HUMAN ENTPD2 MAB9 (antibody, human IgG1, lambda, V domains shown, also called Anti-ENTPD2 mAb9) VH: QVQLVQSGAEVKKPGSSVKVSCKASGGTFDSYAVSWVRQAPGQGLEWMGRIVPWLGHTQYAQKFQGRVTITADESTSTAYMELSSLRSEDTAVYYCARESPGYRYSFDVWDQGTLVTVSS VL: SYELTQPLSVSVALGQTARITCSGDAIGEKYVYWYQQKPGQAPVLVIYDDNNRPSGIPERFSGSNSGNTATLTISRAQAGDEADYYCASYDLQQARWVFGGGTKLTVLG | 92 | 70 | 0.3 | 0.1 | 71 | 0.3 | no binding (tested: 50 nM) | 0.9 | 0.0003 | 380000 | 20.9 | 0.021 | 990000 | 0.5 |
| ANTI-HUMAN ENTPD2 MAB10 (antibody, human IgG1, lambda, V domains shown, also called Anti-ENTPD2 mAb10) VH: QVQLVQSGAEVKKPGSSVKVSCKASGGTFDSYAVSWVRQAPGQGLEWMGRIVPWLGFTRYAQKFQGRVTITADESTSTAYMELSSLRSEDTAVYYCARESPGYRYSFDVWDQGTLVTVSS VL: SYELTQPLSVSVALGQTARITCSGDAIGEKYVYWYQQKPGQAPVLVIYDDNNRPSGIPERFSGSNSGNTATLTISRAQAGDEADYYCASYDLQQARWVFGGGTKLTVLG | 88 | 77 | 0.4 | 0.2 | 86 | 0.5 | no binding (tested: 50 nM) | 0.8 | 0.00024 | 340000 | 15.2 | 0.018 | 1.2e+06 | 0.6 |
| ANTI-HUMAN ENTPD2 MAB4 (antibody, human IgG1, kappa, V domains shown, humanized and optimized from mAb16; human IgG1, kappa; also called Anti-ENTPD2 mAb4) VH: QIQLQESGPGLVKPSQTLSLTCTVSGYSITSGYYWNWIRQHPGKGLEWIGYISYDADNNYNPSLKNRVTISRDTSKNQFSLKLSSVTAADTAVYYCAGGYYRYGLGSYRGSYYYVMDYWGQGTTVTVSS VL: ETVLTQSPATLSVSPGERATISCKASQSVDYEGHSYMNWYQQKPGQAPRLLIYAASNLESGIPARFSGSGSGTDFTLTISSVEPEDAATYYCQQSNEDPPTFGGGTKLEIKR | 87 | 74 | 0.2 | 0.2 | 75 | 2.2 | no binding (tested: 50 nM) | 0.7 | 0.00022 | 300000 | 42.1 | 0.0057 | 140000 | 0.5 |
| ANTI-HUMAN ENTPD2 MAB6 (antibody, human IgG1, kappa, V domains shown, humanized and optimized from mAb16; human IgG1, kappa; also called Anti-ENTPD2 mAb6) VH: QVQLQESGPGLVKPSQTLSLTCTVSGYSITSGYYWNWIRQHPGKGLEWMGYISYDADNNYNPSLKNRITISRDTSKNQFSLKLSSVTAADTAVYYCAGGYYRYGLGSYSGSYYYVMDYWGQGTTVTVSS VL: DTQMTQSPSSLSVSVGDRATITCKASQSVDYEGHSYMNWYQQKPGKAPKLLIYAASNLESGVPSRFSGSGSGTDFTLTISSVQPEDFATYYCQQSNEDPPTFGGGTKLEIKR | 95 | 90 | 0.3 | 0.2 | 73 | 3.3 | no binding (tested: 50 nM) | 0.7 | 0.00026 | 350000 | 35.6 | 0.01 | 290000 | 0.4 |
| ANTI-HUMAN ENTPD2 MAB5 (antibody, human IgG1, kappa, V domains shown, humanized and optimized from mAb16; human IgG1, kappa; also called Anti-ENTPD2 mAb5) VH: QIQLQESGPGLVKPSQTLSLTCTVSGYSITSGYYWNWIRQHPGKGLEWIGYISYDADNNYNPSLKNRVTISRDTSKNQFSLKLSSVTAADTAVYYCAGGYYRYGLGSYRGSYYYVMDYWGQGTTVTVSS VL: ETVLTQSPATLSVSPGERATISCKASQSVDYDGNSYMNWYQQKPGQAPRLLIYAASNLESGIPARFSGSGSGTDFTLTISSVEPEDAATYYCQQSNEDPPTFGGGTKLEIKR | 95 | 80 | 0.3 | 0.2 | 80 | 1.5 | no binding (tested: 50 nM) | 0.6 | 0.00016 | 270000 | 10.7 | 0.003 | 290000 | 0.4 |

— patent US20220348651A1 (Novartis, published 2022)
